Test results: the supplement of paper PMC12042874
± gives the uncertainty stated by the source.

Assay: amyloid nucleation score (Sup35N fusion, yeast selection) (log enrichment); library NNK2; higher = more nucleation; inactive = no reads after selection
How it was run: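 The nucleation score, computed with DiMSum, is the log enrichment of output over input reads, centred on the mode score of non-aggregating sequences. Sequences with under 100 input reads were dropped. Reads were generated by Illumina sequencing of plasmid inserts from psi-negative yeast with Sup35N fused to peptides of 20 random codons, induced with 100 μM copper sulfate for 24 hours and grown 7 days at 30°C on medium lacking adenine and uracil.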

| Substance | amyloid nucleation score |
| --- | --- |
| FNGVLDWEWHGVAFAWAGLV | 0.399 ± 0.65 |
| NENKILSDL | -0.585 ± 0.36 |
| EVSTWQLPMNTDTVEGGSVV | 1.16 ± 0.25 |
| VSYEVVINRYFGKHCCGTII | inactive |
| GFLIKWNNGVLVLVSAMMCI | -0.598 ± 0.4 |
| TSDPCFFCNST | -0.381 ± 0.79 |
| CESHVSRWYSVS | 0.505 ± 0.27 |
| HSVFNSMRRENLVNNNTLNG | inactive |
| FTSMLS | 0.374 ± 0.64 |
| EPMKSFSHNCLTQIST | -0.557 ± 1.1 |
| WTWTYARDVHTTLN | 1.13 ± 0.41 |
| MTSLGVPNAYCEGNGAWYHR | 0.321 ± 0.21 |
| IDLLFDFTDLMWLIYPVFLL | -1.93 ± 0.75 |
| PWHDEVVVSNQVYTYMGPSS | 0.074 ± 0.3 |
| PIIFSLSTFSCNVYEIRSNG | 3.57 ± 0.093 |
| TFILFGRFEQTKVSVW | 3.67 ± 0.075 |
| ILCYMVGSRIMCVEHSGC | 8.588 ± 0.064 |
| TSQTCLEVSRSCCVGMRKSK | 0.192 ± 1 |
| PSYPSVSRVK | 0.151 ± 0.24 |
| ITSSRDDVSYTVGPKDMFES | 1.17 ± 0.37 |
| CIMMYVT | 0.259 ± 0.17 |
| GCGFFDFSVSWL | -1.24 ± 0.78 |
| MFSYTVSVLDLIYKSIWECE | -0.941 ± 0.35 |
| GPITWTNSSGCRIPMPSFSE | 1.42 ± 0.36 |
| YWYASSSSNIWYPEVCKCPV | -0.77 ± 0.79 |

| Substance | amyloid nucleation score |
| --- | --- |
| FCFSLCWDIFNVLSVFGYNF | -0.793 ± 1 |
| HYLAIVTWLPYRCRF | 0.935 ± 0.15 |
| CSVVTNGLLNMSSFPHVFCM | 1.79 ± 0.11 |
| VCWTNSWVCNSGVLSGVGAA | 1.41 ± 0.18 |
| LSRLNFGIFDKVTAATGLMK | -1.26 ± 0.78 |
| ARSNFLFRHNILFFVYFITS | -1.48 ± 1.1 |
| VSRGGKHGVQIT | inactive |
| LIFRFLGLVMLFQ | inactive |
| NSVMIDTDVKFAFFRSET | inactive |
| TSGFRKHNVQRRLECTPGDW | 1.14 ± 0.31 |
| PVRRRGNLFIRRLLSFEKKL | inactive |
| HWGSVAGDFWGFVVWSRFGR | 0.234 ± 0.34 |
| MSSMCNLFRYMFKLYVRSWV | -0.681 ± 0.3 |
| SAVSPVSVADR | -0.656 ± 1.1 |
| FLSGVFIMRFHLNY | inactive |
| AVMTRFEDVYDCAVSTCKMG | -0.363 ± 1 |
| SCSVTSAFRWTRCGLLRGIW | -0.048 ± 0.3 |
| DITTEVKGSLLVMLSGDNAG | 0.807 ± 0.31 |
| SILGMG | -0.555 ± 0.28 |
| SFYWKMVW | 0.512 ± 0.33 |
| YHTSQLYWLLRCQSSFNSWG | 2.48 ± 0.079 |
| VWIFSSSIKTTLYKHLLSNT | -0.539 ± 0.74 |
| HNLQECSPVGPGTAFFCGSW | -0.243 ± 1.1 |
| MSHTVITFFVCIVYSFSHCL | 1.86 ± 0.3 |
| QSTYCQRRCVC | 0.042 ± 0.63 |

| Substance | amyloid nucleation score |
| --- | --- |
| RGFNGSLR | 0.552 ± 0.4 |
| FTVLEHRMFILSYVLRTRVW | 0.468 ± 0.74 |
| AMRGI | 1.26 ± 0.23 |
| SFVSTVFMGRVFMQHAISTR | -1.08 ± 0.55 |
| YPNTLFHWEAS | 0.359 ± 0.29 |
| LGYKVSK | 2.63 ± 0.19 |
| GSWFVPRMSLSWAGSETGPQ | inactive |
| VYHDHLKLWSKGTSRVAWAL | 2.34 ± 0.16 |
| STSIPCSEHDFVCYHMVCGF | -0.652 ± 0.37 |
| NFKCFTRRVNWESYITEVVR | 3.19 ± 0.068 |
| ANHVSKDIFVNCEVKVPHVW | 5.937 ± 0.051 |
| SWLFRYYVERVNDVRG | 0.191 ± 0.65 |
| VSKMGYRDALVAREGLCGVV | 0.072 ± 0.38 |
| LNYRH | inactive |
| YILCYTVNCNAELSHLVCDI | 7.154 ± 0.058 |
| KFLKARFGYQST | 1.3 ± 0.13 |
| CRNLPGVCEMPSGVANYRVL | -0.547 ± 1.1 |
| VWGLLTIPCVSQIRCRCGFS | 0.749 ± 0.53 |
| PDGSASIGGYYGQFLL | -0.746 ± 0.62 |
| HLIAFLSAYFYYVMLARMYF | -1.87 ± 1.1 |
| GFLFRFETRKTHRSCLSWIG | 1.71 ± 0.13 |
| YFVPKLYRVSFKLYKWCFKW | 0.277 ± 0.64 |
| IVLYVHTTLLAGS | 4.6 ± 0.091 |
| GQIAKVKPVRWKFKTTTWGS | 1.26 ± 0.41 |
| GPVVIVDNFQYDCLA | -0.109 ± 0.76 |

| Substance | amyloid nucleation score |
| --- | --- |
| VSTRSLF | inactive |
| WLFRGSIVKWTPHRPDRYAC | -0.088 ± 0.46 |
| NMPHPHEFIRSPCICLRHVV | inactive |
| SVYMPSVCNKLFFRGCGYGF | 3.04 ± 0.096 |
| ACFNLEKIVINYFWFS | 6.999 ± 0.039 |
| YCFRS | -0.542 ± 0.64 |
| EPFSNEWWLMGVRPHLICRV | 0 ± 0.37 |
| LKWDASKAWILRCQCFRELW | -0.678 ± 0.76 |
| AYSGIFTRNAEVYSDIYLQ | -0.499 ± 0.76 |
| KILGWT | 0.836 ± 0.21 |
| TEILILMIGLIAGLYCEIRF | -0.231 ± 0.79 |
| RCGASSCNRLGPPMLNNRAM | -1.6 ± 0.75 |
| RSNNTIFGKLFSGAILLCWV | -1.2 ± 1 |
| YMVCLRSGSIPVIDLPWYSL | -0.12 ± 1 |
| TCFVC | 5.746 ± 0.052 |
| AKLEVQA | -0.978 ± 0.36 |
| WASWRSYSMWLDLLCFRSRG | 0.155 ± 0.33 |
| RCGEVRYPCTDVYILGFRSV | -0.437 ± 0.63 |
| AIVDFTKNFIQCAY | inactive |
| GWRLTRDRVG | 1.31 ± 0.18 |
| KRNVLLLYYSCSAICSRYVV | -0.22 ± 0.63 |
| FAQPHGCNKMCFCSLRFQYL | 3.21 ± 0.12 |
| SQVLLGQCCMNHKDLSFVWI | 0.708 ± 0.34 |
| RCVSRTR | 0.147 ± 1.1 |
| WQIGCLADIYSYLPDGNTVG | -0.389 ± 0.4 |

| Substance | amyloid nucleation score |
| --- | --- |
| LRRTTGYSKLTCLTHG | 4.34 ± 0.048 |
| YLLFNLHAVYLLVSGEPSPC | 0.405 ± 0.39 |
| CFCQTCSLSRAKSMEEGCLR | -1.08 ± 0.54 |
| VAVVFTKYSSRTYLGVGSVG | 4.21 ± 0.07 |
| DMLVCNGLFVFRASKGTIDA | -0.837 ± 1.1 |
| IFCWRVSCEQRVFYLIESGR | -0.388 ± 0.24 |
| FFVSGLFANF | 1.73 ± 0.2 |
| TLSHPWADLLVSETHMVYR | -0.381 ± 1.1 |
| LCWMRFLDSCEEVHKSIHVF | 0.38 ± 0.39 |
| FFGVSWRWARNFCYDMGQVY | -0.177 ± 1 |
| FRCGRVTFNLVEYTFPPWIW | -0.78 ± 0.63 |
| FRNSTATLYSVGSFTSKTQL | 1.03 ± 0.19 |
| ILSSFMQ | -0.2 ± 0.41 |
| HSRQCFTHFGYFTGLGRVRV | 2.18 ± 0.1 |
| SIVKLGVYHDLPA | 0.721 ± 0.66 |
| AKYSSLKNMLYGFRRDANMG | 0.296 ± 0.65 |
| WPVHV | -1.38 ± 1.1 |
| SVLGTKVRVYRSGWTLRIFE | -0.456 ± 0.37 |
| VTKDCNMRMKCTSSIIFLKN | -0.459 ± 1.1 |
| MCWVANNVTNPVEVEYERSL | -0.821 ± 1.1 |
| LFGVSMSKADMSFWQDSGTR | 4.77 ± 0.092 |
| CYAPKYGRHWP | 0.708 ± 0.49 |
| FDSLAKLFSRIVLLLLLNDR | -0.032 ± 1.1 |
| CYVVAREKSLIETGNFGKYG | -0.653 ± 0.79 |
| VHELCTYNLFEPVCSLVWYR | 9.545 ± 0.05 |

| Substance | amyloid nucleation score |
| --- | --- |
| FMFPILDSVTPIFDIVITGD | inactive |
| GLVFRS | inactive |
| LGRIHYNLFYVYV | 2.27 ± 0.14 |
| EYIYLNLYISDNLYSSGKSG | 2.88 ± 0.16 |
| GYIAYATVWGLQDNGSRSIA | -0.637 ± 0.25 |
| TWVLSWSIPNCARGFLSWWI | 0.672 ± 0.18 |
| TMPFWKDFQT | 0.183 ± 1 |
| DKMYVIIVGPLAAMENVNNT | 0.024 ± 0.48 |
| NRKWIDRLVYKGNNPYHGEV | 0.906 ± 0.57 |
| ASLSMSLFFALSVA | inactive |
| TYHCN | 0.765 ± 0.43 |
| RPWLNRAFDVISYYAIMACR | 0.091 ± 0.3 |
| VLRRIVMMLSIS | -0.069 ± 0.32 |
| SGYSPSLFCKVFPWANELCS | -1.12 ± 1.1 |
| MEPNYGVRGVMYNFVMPRWM | 7.251 ± 0.047 |
| PACYKDYGSKSPHPPTVGLG | -0.159 ± 0.76 |
| IVAGVSSGQGIDQDSIVNKR | 0.102 ± 1.1 |
| ILYSDFRMYSGRFLSEMVRI | 0.247 ± 0.39 |
| SKLVSYIDWVGSRILRYTCV | -0.801 ± 1.1 |
| APFARSCDNWILGIFVFILG | 6.125 ± 0.042 |
| GLIMVSSVLCTFAGMGDNWA | 5.84 ± 0.091 |
| WRLVHCIHTIGYCMPVRLRG | 3.25 ± 0.088 |
| ANRWSMQGSERASSANWHRW | 4.63 ± 0.054 |
| DWSVKCGVMERI | -0.295 ± 0.4 |
| VEAWGP | -0.948 ± 0.45 |

| Substance | amyloid nucleation score |
| --- | --- |
| TLSLSYALLSCVSVIKCPLV | -0.451 ± 0.79 |
| KISVWGYRFLDRH | 0.072 ± 0.21 |
| SLGNVHRLL | -0.246 ± 0.79 |
| MCTGVPINGFWVCPYDQSGK | 0.108 ± 0.33 |
| TNLRAPEHHSHYCSRLRLD | -0.267 ± 0.35 |
| CFSHYHDSFLPGWYYSGNYV | -0.788 ± 0.4 |
| ASIVNYHFD | inactive |
| QIDYRLIVGRSG | 0.32 ± 0.74 |
| TFLWLT | 2.33 ± 0.09 |
| NSVSCANYTLHPIAMDWNGP | inactive |
| AISPVLC | 1.9 ± 0.43 |
| TLAFVNNYDLRLELDRIEVP | inactive |
| IWCSTGTFWLGGRLITLWRW | 1.02 ± 0.28 |
| GCVCDVGPVTVRGVNGVLVS | 1.45 ± 0.26 |
| GRMQTKTILKNIECNNDSLM | 2.39 ± 0.057 |
| FCWSCWLFQDCSYVVIGREV | 8.556 ± 0.048 |
| NCAVFTSGR | -0.478 ± 0.63 |
| TLVCSKAFKYVGV | 0.131 ± 0.46 |
| YLRLHYAFSGVNNKGIESGC | inactive |
| NDSQTTLGLFDCRVREADHR | -0.003 ± 1.1 |
| GASRVAPVCQTTKSLKCMAK | -1.17 ± 1.1 |
